Assay results taken from the DeepSol protein solubility set.

Assay: soluble on expression in E. coli; label from the status in PepcDB or PDB records

| Sequence | soluble on expression in E. coli |
| --- | --- |
| LEGENSKQKVQMSIHQFTNICFKKCVESVNDSNLSSQEEQCLSNCVNRFLDTNIRIVNGLQNTR | soluble |
| LENDRTTFRIRNLDSGEIIWSGMGAVYPVYSPSFDHAADAFAFAFSSPADPPEIHLLRDAETKSSINSHLDGVSPYPAEIVEWKAKDGEDLYGILRLIDPKNPLIVYIHGGPTSFSYASFLDRTSIYLGYGFNVFAPNYRGSVGKGRRYAELNVGDLGGKDFDDVISGIEFLKNTGKIATDRIYITGGSYGGYMSALAVMKTDIFRASVSLFGISDWVSFHGVSNLHLWDRLHMDADPWAFKKYDEYSPIRIMHEPKTPTLLMHGIKDPYVPIGQYYEFYRFLKEKNCEVRMIVFPREGHGFTEKEHIRRQYMETIRFMKDH | not soluble |
| LFSYKSTMWQFINKVTSDRINILNQYYEKFGIHILPQQVTNYRSAGIIVMDNIYVT | not soluble |
| LGGVAPEQVAYAVEQAGKRLQERDNAGVKVRPARLTDLDALEGMVAYWAGLGENLPRNRNELVRDIGSFAVAEHHGEVTGCASLYVYDSGLAEIRSLGVEAGWQSQGQGKAIVQHLVEKAREMAIKKVFVLTRVPEFFMKQDFIPTSRSLLPEKVLKDCDQCPRQH | not soluble |
| LGSMAAAAAQGGGGGEPRRTEGVGPGVPGEVEMVKGQPFDVGPRYTQLQYIGEGAYGMVSSAYDHVRKTRVAIKKISPFEHQTYCQRTLREIQILLRFRHENVIGIRDILRASTLEAMRDVYIVQDLMETDLYKLLKSQQLSNDHICYFLYQILRGLKYIHSANVLHRDLKPSNLLINTTCDLKICDFGLARIADPEHDHTGFLTEYVATRWYRAPEIMLNSKGYTKSIDIWSVGCILAEMLSNRPIFPGKHYLDQLNHILGILGSPSQEDLNCIINMKARNYLQSLPSKTKVAWAKLFPKSDSKALDLLDRMLTFNPNKRITVEEALAHPYLEQYYDPTDEPVAEEPFTFAMELDDLPKERLKELIFQETARFQPGVLEAP | soluble |
| LHRILKVVFPKRKIVLWVIGGDLHLEVEKGRYRVDVLKSLQYLLVEGQAMKDALCGQGVENVKVMPNFKDISLFSPLHCHTPYTPSKVLRLVFFSRIMPDKGCDLILDLAHKLNERGYKDKFVIDFYGPIAPDYSKRFSSILDTLPNVHYQGTLD | not soluble |
| LMTIKCLLLAVMVCPFFITACSDKYSEQDRVQAINNADAPFGAGLLTFQISSDTQLNSLNEISNSCALLFLQASDKNTLQDIMNNPVLIKQFFIGTGKVDGILKVDKYVAMPGQEITLHIDRNEGTKYVGVVAGYYPFPGKQHMLLLDIPVDVVEEGWWNKSLHASLLPLSKKISMGKESISMK | not soluble |
| LNLSEKQVVKIGILQYVTHDALDAIEKGVEDGLAQEGYKGKKVKLTVLNAEADQSKIQAMSKQLVNHHNDILIGIATPSAQGLAASTKDTPIIMGAVSDPLGAKLVTNMKKPTTNVTGLSNVVPTKQTVQLIKDITPNIKRIGILYASSEDNSVSQVTEFTKYAQKAGLEVLKYSVPSTNEIKTSMSVMTKKVDAVFVPQDNTIASAFRTVIVAANQANIPVYSSVDTMVEQGSIASVAQSQYGLGLETAKQAIKVLRGKPVKDVPVKVIDTGKPSLNLKAAKHLGIKIPKKIMKQAEITVKVD | not soluble |
| LPSGIIIKGIGGFYYVKTENGIYECKARGVFRKDSKIPLPGDEVVISVIDEEKKKGYIEEICERKIQLIRPAVANINQIALVVSVKSPLPDFVLLDKLLITVMQKELNAIICINKIDLDEGYKDVIIDCYKGTGVETVCVSSVLNVGFEQLAKMLEGKTTVFAGQSGVGKSTILNKILDSYVMETGEISDKIERGRHTTRHAELLELKSGGFVVDTPGFSSFELSEIEPKELQNYYPEFRDYIGKCRFAGCSHISEPGCMVKSALENGMINKDRYGRYIIFYNMLKDKQRRKYS | not soluble |
| LQKVFDNTVVQNSDIKKFNESKLIKPNLMQEHALKSLESLRNVGEEKGLIISATGTGKTILCALDVRAYSPDKFLFIVHNEGILNRAIEEFKKVFPYEDESNFGLLTGKRKDHDAKFLFATIQTLSKKENYKLFNSNHFDYIVFDEAHRIAASSYQKIFNYFKPNFLLGMTATPERTDELNIFE | not soluble |
| LRTITRDDWETCIDLKVARHQAHFVASNLYSLAQSRFLPGFRAVGIHHGGRMVGFALYGPDADDGHYWLYRLMIDRRYQGKGHGRAALQRIIASVRRTRRRSDRLMVAYAVDNDVARQLYRDAGFVEQGLAPWGETMACLMLPEPSHRSGKVAGAPGGRAAHGVPA | not soluble |
| LSFYHPEDRETVSDAVDAALNDGDPYDLEVRLITARGNHRWVRTRGKRVEGAEKPTVRGFIQDITEQKER | not soluble |
| LSITTPEQRIEKAKGETAYLPCKFTLSPEDQGPLDIEWLISPSDNQIVDQVIILYSGDKIYDNYYPDLKGRVHFTSNDVKSGDASINVTNLQLSDIGTYQCKVKKAPGVANKKFLLTVLVKPSGTRCFVDGSEEIGNDFKLKCEPKEGSLPLQFEWQKLSDSQTMPTPWLAEMTSPVISVKNASSEYSGTYSCTVQNRVGSDQCMLRLDVVPPS | soluble |
| LSYHVIGPLRELTSTARRLGRGELDARVTYSGEDELAQLGERFNQMAGELKSIYGDLEERVEDKTRALSQSHQRLELLYASARRLGENPYDSRTLQPLLNQLEKVLDAGRVTLCLNKDGVERAYSSLTTTERPADFCLQGDCGSCREQASACDQPSSLAQPLLMQPLSIAGHRFGELFIESRSGRLENWQQQLIETFCDNIARTFALSLQQEQESRLALFAERGTIARELHDSLAQSLSYLKIQVSRLGTLLKREAPAEKIEDTLDELREGLNGAYRQLRELLTTFRLSLDEPSLEAALGNAVAEFGERGEVTIELDNRLQHVPLSPNEEIHVLQIVREALSNVVRHSQAQRAWVRLSSQADGQVSIAVEDDGVGFDPQQNRSGHYGLTIMQERGQTLGSQLRFEARAPHGTRVLFSFVPTALQP | not soluble |
| LTGPQLAVVGSRQPSPYALRAMRRLLPQVVRQQVCLVSGLAQGVDTLAHQAALAHRGKTIAVIGTGLDHCYPAGNRDLMTELAHHHLVISEYPWGTAGARHHFPERNRIIAGLSQSTLVVEAARHSGSLITANIALQENRNVLAVPGSLDNPNSVGTNELILAGAKPILNSEHIIEEVLVDKRL | not soluble |
| LVERDSFVNALRESERRYRNIIETASEGILIIDSEVRISYANKKMTDMLGCPLEEVTGRKMCDFVSEESKDIVKLNQKRRRQGINDSYELKLVCKDGSSLWALVNAKSLFDKDGKFMGSISLLTDIT | not soluble |
| LYPEEILDTHWELWKKTHRKQYNNKVDEISRRLIWEKNLKYISIHNLEASLGVHTYELAMNHLGDMTSEEVVQKMTGLKVPLSHSRSNDTLYIPEWEGRAPDSVDYRKKGYVTPVKNQGQCGSCWAFSSVGALEGQLKKKTGKLLNLSPQNLVDCVSENDGCGGGYMTNAFQYVQKNRGIDSEDAYPYVGQEESCMYNPTGKAAKCRGYREIPEGNEKALKRAVARVGPVSVAIDASLTSFQFYSKGVYYDESCNSDNLNHAVLAVGYGIQKGNKHWIIKNSWGENWGNKGYILMARNKNNACGIANLASFPKM | soluble |
| MAAALKPSAPEIRKAAQEFINYLNKAVTPFHATQEVKDRLLQAGFTELPESGHWDIQPTSKYFVTKNRSAILAFAVGGSYKPGSGFSIVVGHTDSPCLRVKPISHQKSDKFLQVGVSTYGGGIWRTWFDRDLSVAGLVIVKNGEKLQHKLIDVKKPVLFIPNLAIHLETDRTTFKPNTETELRPILETFAAAGINAPQKPESTGFADPRNITNNHHPQFLGLIAKEAGCQPEDIVDLDLYLYDTNKAAIVGMEDEFISGARLDNQVGTYTAISGLLESLTGESFKNDPQIRIAACFDNEEVGSDSAMGASSSFTEFVLRRLSAGGSTTAFEEAIGKSMLISADQAHATHPNYSAKHEENHRPAFHGGVVVKVNVNQRYATTSTTHAALKQVAFEAQVPLQVVVVRNDSPCGSTVGPILATKLGLQTVDVGCPQLAMHSIREFADTSSIYQATTLYSTFYERLSTVLSNMQ | not soluble |
| MAADGTYDELERGEKSKLRDDVVDIQKKPFSILFMGVEDYSTNGEHGRTDSLIVVTLDPKKKSMKMLSIPRDTRVHLASDTTGTKTKINAAYAKGGKDETIETVEDFLGIPIDYYATVDFDGFKDVIDEIGGIDVDVPFDFSEKSDVSKSKRIYFKKGNMHLNGEEALAYARMRKQDKRGDFGRNDRQKQILKAALDQISKPQNLAKIDTIAQKASKNIQTNFRITQALALQQIYSGFAGDDIKTLNITGQDLTIANVYYFEPDQQNLENVQNELTHHLYPLEHHHHHH | soluble |
| MAAEGVRVEGDWSRLVETIRNLNLSKSELRMLNAQIAQIVAEGSKERFETEKSPEGERWEPLSPATLEARARRRTRRKDGTSGYRTKRGKLSKRAERIIASGRPLKDTGRLMRSIATKATAEAAVIGTNLVQAAIQQLGGKAGRGKKVEIPARPYLGVSSSEEADIMELINEFIRERIQ | not soluble |
| MAAIGVHLGCTSACVAVYKDGRAGVVANDAGDRVTPAVVAYSENEEIVGLAAKQSRIRNISNTVMKVKQILGRSSSDPQAQKYIAESKCLVIEKNGKLRYEIDTGEETKFVNPEDVARLIFSKMKETAHSVLGSDANDVVITVPFDFGEKQKNALGEAARAAGFNVLRLIHEPSAALLAYGIGQDSPTGKSNILVFKLGGTSLSLSVMEVNSGIYRVLSTNTDDNIGGAHFTETLAQYLASEFQRSFKHDVRGNARAMMKLTNSAEVAKHSLSTLGSANCFLDSLYEGQDFDCNVSRARFELLCSPLFNKCIEAIRGLLDQNGFTADDINKVVLCGGSSRIPKLQQLIKDLFPAVELLNSIPPDEVIPIGAAIEAGILIGKENLLVEDSLMIECSARDILVKGVDESGASRFTVLFPSGTPLPARRQHTLQAPGSISSVCLELYESDGKNSAKEETKFAQVVLQDLDKKENGLRDILAVLTMKRDGSLHVTCTDQETGKCEAISIEIAS | not soluble |
| MAAISFPLLQLPNFALNKTLKLMCVVPHLYLSIISKKAKRCITAVNEKPLYVHINKASSISLRLTTKSFQNFEFIITPGQSDLEIRKYITTRPLFNSYLSTNQCVLGVTAKQWIELIAQVFIQDKGVLLKLQNSNKFNIKEIQYYTRELNIVRLKIESSELQDTQLSKMFPKVEELTVTRDKIPSSILSRNFKKLRFDDIKVSLDNILISNCSSFLIFLQTLPDKDLNRFMKLWIKESNPNLKTFEVCFPDYEQTGLDGTILFKGIRCIDSIKHGEVTRKKFKRHDGTTALVSVFASTSFHFCMTVVG | not soluble |
| MAAISLAKVEETAPALVSLYKSAGVSLHKHGLDGQRAAVYLVVDYSGSMRPYYKDGSVQALTDRVLGLSAHLDDDGTVPVVFFSTDIDAVTDIALADHQGHIELIVAGLGHMGKTSYHLAMDAVIDHYLDSGSKDPAFVVFQTDGGPTSKPAAERYLCKAAELPLFWQFIGFGDPGSRQFEFLRKLDELAVPHKRVVDNAGFFHAGTDPRKVSDGELYDRLVGEFPQWLAAARTHGIVRLEHHHHHH | not soluble |
| MAAMITPPGAGVKDKKRAILEATLAVLRERGLSGLKMEEVARRAEVGKGTIYLYFRDKRDLLKALVEERTWAFYREVEEVVRRKAPFFVRLEEVLRRRLAWVQEWRGLWAAVAREAMDDPTPWLKGLHEHYLRLLEELLRSGQSEGAVRTGLSPRATAAVIAAMGCTPSLEVEAYLEHLMEVLRKGVEP | soluble |
| MAASRALSLTAEAVRAVIPRRSGRLLTRWETTSSIPEAGEGQIRLTDSCVQVGGRTRGGGAQEGSRRLPSHPSRYLRLLGILDPLS | not soluble |
| MAATSRPERVWPDGVIPFVIGGNFTGSQRAVFRQAMRHWEKHTCVTFLERTDEDSYIVFTYRPCGCCSYVGRRGGGPQAISIGKNCDKFGIVVHELGHVVGFWHEHTRPDRDRHVSIVRENIQPGQEYNFLKMEPQEVESLGETYDFDSIMHYARNTFSRGIFLDTIVPKYEVNGVKPPIGQRTRLSKGDIAQARKLYKCPA | soluble |
